According to PMC3658131:

Biological target: Bd-cys-S-fluorescein conjugate (Staphylococcus aureus)
Assay: ELISA

| Substance | net absorbance at 405 nm (net absorbance (405 nm)) |
| --- | --- |
| HRP-conjugated guinea pig IgG (antibody) | 0.91 |
| HRP-conjugated rabbit IgG (antibody) | 1.13 |
